The values that follow come from publication PMC5095173, “Disulfide-activated protein kinase G Iα regulates cardiac diastolic relaxation and fine-tunes the Frank–Starling response” (Nature Communications, 2016).

The test system of assay [1] is PKGIα (analogue-sensitive M438G), disulfide-activated. Description: Chemical genetic phosphoproteomic screen, disulfide-activated PKGIα M438G versus unactivated control. It is filed as biochemical, human PKGIα; substrates in rat heart homogenate. The note with it: for log2 fold changes: Group 2 (disulfide-activated) vs Group 3 (control); for log2 fold change Disulfide vs Control: control = PKGIα C42S/M438G. In short, it runs like this:
(§1)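 Substrates in rat left-ventricle homogenate (20 mg ml) are labelled by engineered Met438Gly PKGIα given a bulky N6-alkylated ATPγS analogue, either as disulfide-activated M438G (oxidized, DTT-free) or as cGMP-activated C42S/M438G. Covalent capture and LC–MS/MS identify sites relative to unactivated kinase.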

In assay [2] the test system is PKGIα (analogue-sensitive C42S/M438G), cGMP-activated. In words: Chemical genetic phosphoproteomic screen, cGMP-activated PKGIα C42S/M438G versus unactivated control. It is filed as biochemical, human PKGIα; substrates in rat heart homogenate. The note with it: for log2 fold changes: Group 1 (cGMP-activated) vs Group 3 (control); for log2 fold change cGMP vs Control: control = PKGIα C42S/M438G. In short, it runs like this:
as §1

B1: Hdlbp pS74 (protein, UniProt Q9Z1A6 2-1268, looked up)
Vigilin: SSVAVLTQESFAEHRSGLVPQQIIVATLNSEEESDPPTYKDAFPPLPEKAACLESAQEPAGAWSNKIRPIKASVITQVFHVPLEERKYKDMNQFGEGEQAKICLEIMQRTGAHLELSLAKDQGLSIMVSGKLDAVMKARKDIVARLQTQASATVPIPKEHHRFVIGKNGEKLQDLELKTATKIQIPRPDDPSNQIKITGTKEGIEKARHEVLLISAEQDKRAVKRLEVEKAFHPFIAGPYNRLVGEIMQETGTRINIPPPSVNRTEIVFTGEKEQLAQAVARIKKIYEEKKKKTTTIAVEVKKSQHKYVIGPKGNSLQEILERTGVSVEIPPSDSISETVILRGEPEKLGQALTEVYAKANSFTVSSVSAPSWLHRFIIGKKGQNLAKITHQMPKVHIEFTEGEDKITLEGPTEDVNVAQEQIEGMVKDLINRMDYVEINIDHKFHRHLIGKSGANINRIKDQYKVSVRIPPDSEKSNLIRIEGDPQGVQQAKRELLELASRMENERTKDLIIEQRFHRTIIGQKGERIREIRDKFPEVIINFPDPAQKSEIVQLRGPKNEVEKCTKYMQKMVADLVENSYSISVPIFKQFHKNIIGKGGANIKKIREESNTKIDLPAENSNSETIVITGKRANCEAARSRILSIQKDLANIAEVEVSIPAKLHNSLIGTKGRLIRSIMEECGGVHIHFPVEGSGSDTVVIRGPSSDVEKAKKQLLHLAEEKQTKSFTVDIRAKPEYHKFLIGKGGGKIRKVRDSTGARIIFPAAEDKDQDLITIIGKEDAVREAQKELEALIQNLDNVVEDYMLVDPRHHRHFVIRRGQVLREIAEEYGGVMVSFPRSGTQSDKVTLKGAKDCVEAAKKRIQEIIEDLEAQVTLECAIPQKFHRSVMGPKGSRIQQITRDYNVQIKFPDREENPVHSVEPSIQENGDEAGEGREAKETDPGSPRRCDIIVISGRKEKCEAAKEALEALVPVTIEVEVPFDLHRYIIGQKGSGIRKMMDEFEVNIHVPAPELQSHTIAITGLAANLDRAKAGLLDRVKELQAEQEDRALRSFKLSVTVDPKYHPKIIGGKGAVITQIRLEHDVNIQFPDKDDGNQPQDQITITGYEKNTEAARDAILKIVGELEQMVSEDVPLDHRVHARIIGARGKAIRKIMDEFKVDIRFPQSGAPDPNCVTVTGLPENVEEAIDHILNLEEEYLADVVDSEALQVYMKPPAHEESKAPSKGFVVRDAPWTSNSSEKAPDMSSSEEIPTFGAQVAPKTLPWGPKR
modifications: phosphorylated at S74
For the molecule B1, the log2 fold changes came out at 0.4352 in assay [1] and 3.955 in assay [2].

B2: Hadhb pS198 (protein, UniProt Q60587 35-475, looked up)
Trifunctional enzyme subunit …: SAPAVQTKSKKTLAKPNLKNIVVVEGVRIPFLLSGTSYKDLMPHDLARAALSGLLYRTNIPKDVVDYIIFGTVIQEVKTSNVAREAALGAGFSDKTPAHTVTMACISSNQAMTTAVGLIASGQCDVVVAGGVELMSDVPIRHSRNMRKMMLDLNKAKTLAQRLSLLTKFRLNFLSPELPAVAEFSTNETMGHSADRLAAAFAVSRMEQDKYALRSHSLAKKAQDEGHLSDIVPFKVPGKDTVSKDNGIRPSSLEQMAKLKPAFIKPYGTVTAANSSFLTDGASAMLIMSEDRALAMGYKPKAYLRDFIYVSQDPKDQLLLGPTYATPKVLEKAGLTMNDIDAFEFHEAFSGQILANFKAMDSDWFAQNYMGRKTKVGAPPLEKFNIWGGSLSLGHPFGATGCRLVMAAANRLRKDGGQYALVAACAAGGQGHAMIVEAYPK
modifications: phosphorylated at S198
In the case of B2, the log2 fold changes in assay [1] worked out at 0.04396; in assay [2], 3.435.

B3: Wbp11 pS600 (protein, UniProt Q5PQQ2 1-641, looked up)
WW domain-binding protein 11: MGRRSTSSTKSGKFMNPTDQARKEARKRELKKNKKQRMMVRAAVLKMKDPKQIIRDMEKLDEMEFNPVQQPQLNEKVLKDKRKKLRETFERILRLYEKENPDIYKELRKLEVEYEQKRAQLSQYFDAVKNAQHVEVESIPLPDMPHAPSNILIQDIPLPGAQPPSILKKTSAYGPPTRAVSILPLLGHGVPRLPPGRKPPGPPPGPPPPQVLQMYGRKVGFALDLPPRRRDEDMLYSPELAQRGHDDDMSSTSEDDGYPEDMDQDKHDDSTEDSDTDRSDAESDGDEFGHRDDSERDNTEEKKSGLSVRFADMPGKSRKKKKNMKELTPLQAMMLRMAGQEIPEEGREVEEFSEEEDDDDSEDSEAEKPSQKQHKEDSHADGSSAASSQQQAPPQAVPPSQIQAPPMPGPPPLGPPPAPPLRPPGPPTGLPPGPPPGAPPFLRPPGMPGIRGPLPRLLPPGPPPGRPPGPPPGPPPGLPPGPPPRGPPPRLPPPAPPGIPPPRPGMMRPPLVPPLGPAPPGLFPPAPLPNPGVLSAPPSLIQRPKADDASAATIEKKATATISAKPQITNPKAEVTRFVPTALRVRRENKGATAVPQRRSEEDSAVPVAKAAPRSGPSVPVSVQTKDDVYEAFMKEMEGLL
modifications: phosphorylated at S600
As for B3, the log2 fold changes in assay [1] was 2.503; in assay [2] it was 4.049.

B4: Acadvl pT513 (protein, UniProt P45953 41-655, looked up)
Very long-chain specific …: ASEATQAVLEKPETLSSDASTREKPARAESKSFAVGMFKGQLTTDQVFPYPSVLNEGQTQFLKELVGPVARFFEEVNDPAKNDSLEKVEEDTLQGLKELGAFGLQVPSELGGLGLSNTQYARLAEIVGMHDLGVSVTLGAHQSIGFKGILLYGTKAQKEKYLPRVASGQALAAFCLTEPSSGSDVASIRSSAVPSPCGKYYTLNGSKIWISNGGLADIFTVFAKTPIKDAATGAVKEKITAFVVERSFGGVTHGLPEKKMGIKASNTSEVYFDGVKVPAENVLGEVGDGFKVAVNILNNGRFGMAATLAGTMKAIIAKAVDHATNRTQFGDKIHNFGVIQEKLARMAILQYVTESMAYMLSANMDQGFKDFQIEAAISKIFGSEAAWKVTDECIQIMGGMGFMKEPGVERVLRDIRIFRIFEGTNDILRLFVALQGCMDKGKELTGLGNALKNPLGNVGLLIGEASKQLRRRTGIGSGLSLSGIVHPELSRSGELAVQALEQFATVVEAKLMKHKKGIVNEQFLLQRLADGAIDLYAMVVVLSRASRSLSEGYPTAQHEKMLCDSWCIEAATRIRENMASLQSNPQQQELFRNFRSISKAMVENGGLVTSNPLRV
modifications: phosphorylated at T513
As for B4, the log2 fold changes in assay [1] was -0.899; in assay [2] it was 3.595.

B5: Pfkfb2 pS486 (protein, UniProt Q9JJH5 2-557, looked up)
6-phosphofructo-2-kinase/fruct …: SENSTFSTEDSSSSSYKPHASNLRRAGKKCSWASYMTNSPTLIVMIGLPARGKTYVSKKLTRYLNWIGVPTKVFNLGVYRREAVKSYKSYDFFRHDNEEAMKIRKQCALVALEDVKAYFTEESGQIAVFDATNTTRERRDMILNFAKQNAFKVFFVESVCDDPDVIAANILEVKVSSPDYPERNRENVMEDFLKRIECYKVTYQPLDPDNYDKDLSFIKVMNVGQRFLVNRVQDYIQSKIVYYLMNIHVHPRTIYLCRHGESEFNLLGKIGGDSGLSLRGKQFAQALKKFLEEQEIQDLKVWTSQLKRTIQTAESLGVTYEQWKILNEIDAGVCEEMTYSEIEQRYPEEFALRDQEKYLYRYPGGESYQDLVQRLEPVIMELERQGNVLVISHQAVMRCLLAYFLDKGADELPYLRCPLHIIFKLTPVAYGCKVETITLNVEAVDTHRDKPTHNFPKSQTPVRMRRNSFTPLSSSNTIRRPRNYSVGSRPLKPLSPLRALDMQEGADQPKTQVQQGSAQATEHLQKALEFANGHREVENVLAKHRRPSMASLTLLS
modifications: phosphorylated at S486
In the case of B5, the “log2 fold change Disulfide vs Control” value in assay [1] is on record as -0.4793. Moreover, in assay [2], the “log2 fold change cGMP vs Control” value was found to be 0.2997.

B6: Plcg1 pS1233 (protein, UniProt P10686 2-1290, looked up)
1-phosphatidylinositol …: AGVGTPCANGCGPSAPSEAEVLHLCRSLEVGTVMTLFYSKKSQRPERKTFQVKLETRQITWSRGADKIEGSIDIREIKEIRPGKTSRDFDRYQEDPAFRPDQSHCFVILYGMEFRLKTLSLQATSEDEVNMWIKGLTWLMEDTLQAATPLQIERWLRKQFYSVDRNREDRISAKDLKNMLSQVNYRVPNMRFLRERLTDFEQRSGDITYGQFAQLYRSLMYSAQKTMDLPFLETNTLRTGERPELCQVSLSEFQQFLLEYQGELWAVDRLQVQEFMLSFLRDPLREIEEPYFFLDELVTFLFSKENSVWNSQLDAVCPETMNNPLSHYWISSSHNTYLTGDQFSSESSLEAYARCLRMGCRCIELDCWDGPDGMPVIYHGHTLTTKIKFSDVLHTIKEHAFVASEYPVILSIEDHCSIAQQRNMAQHFRKVLGDTLLTKPVDIAADGLPSPNQLKRKILIKHKKLAEGSAYEEVPTSVMYSENDISNSIKNGILYLEDPVNHEWYPHYFVLTSSKIYYSEETSSDQGNEDEEEPKEASGSTELHSSEKWFHGKLGAGRDGRHIAERLLTEYCIETGAPDGSFLVRESETFVGDYTLSFWRNGKVQHCRIHSRQDAGTPKFFLTDNLVFDSLYDLITHYQQVPLRCNEFEMRLSEPVPQTNAHESKEWYHASLTRAQAEHMLMRVPRDGAFLVRKRNEPNSYAISFRAEGKIKHCRVQQEGQTVMLGNSEFDSLVDLISYYEKHPLYRKMKLRYPINEEALEKIGTAEPDYGALYEGRNPGFYVEANPMPTFKCAVKALFDYKAQREDELTFTKSAIIQNVEKQDGGWWRGDYGGKKQLWFPSNYVEEMINPAILEPEREHLDENSPLGDLLRGVLDVPACQIAIRPEGKNNRLFVFSISMPSVAQWSLDVAADSQEELQDWVKKIREVAQTADARLTEGKMMERRKKIALELSELVVYCRPVPFDEEKIGTERACYRDMSSFPETKAEKYVNKAKGKKFLQYNRLQLSRIYPKGQRLDSSNYDPLPMWICGSQLVALNFQTPDKPMQMNQALFMAGGHCGYVLQPSTMRDEAFDPFDKSSLRGLEPCVICIEVLGARHLPKNGRGIVCPFVEIEVAGAEYDSTKQKTEFVVDNGLNPVWPAKPFHFQISNPEFAFLRFVVYEEDMFSDQNFLAQATFPVKGLKTGYRAVPLKNNYSEDLELASLLIKIDIFPAKENGDLSPFSGTSLRERASDASSQLFHVRAREGSFEARYQQPFEDFRISQEHLADHFDSRERRAPRRTRVNGDNRL
modifications: phosphorylated at S1233
For B6, the “log2 fold change Disulfide vs Control” value in assay [1] worked out at 1.819. The “log2 fold change cGMP vs Control” value in assay [2] stood at 4.5.
